Experimental data reported in patent US20100311184A1, “AZO HETEROCYCLIC DYES AND THEIR BIOLOGICAL CONJUGATES” (AAT BIOQUEST, INC., priority 2009, published 2010).
Where no end group is shown, it is not given here. Compound 12 = dye made from 2-amino-6-nitrobenzothiazole and 3-(1'-oxo-3'-carboxypropylamino)-N,N-dimethylaniline

Target: HIV-1 protease (Human immunodeficiency virus type 1 group M subtype B, UniProt P04585)
Assay: Fluorogenic HIV protease assay with FRET peptides (FIG. 3)
Assay type: biochemical
Settings: FRET peptide substrate, purified enzyme
Description: Inhibition of HIV-1 protease represents an important avenue for AIDS therapy. Currently combination chemotherapy of reverse transcriptase inhibitors and protease inhibitors have shown to suppress the replication of HIV-1 and extend the life expectancy of HIV-1-infected individuals. The following FRET peptides of the instant disclosure are screened for developing a fluorogenic HIV protease assay. The enzyme assays are done with purified enzymes. Absorption spectra were taken with Hitachi U-3010. Endpoint fluorescence assays are run on either BMG NovoStar or Gemini SpectraMax (Molecular Devices). Enzyme kinetic assays are run on FlexStation (Molecular Devices). […] FRET Peptides #6 and #7 might be used for monitoring HIV protease activity in combination with a flow cytometer.
All the above FRET peptides are synthesized using the standard FMOC chemistry. Some of the TQ peptides were prepared using FMOC-Lys (Compound 12)-OH. For the post-labeling of the premade peptides, Dye NHS esters were used for labeling N-terminal amino or ε-amino group of lysine residue. Dye maleimides were used for labeling the SH group of cysteine residues.

Arg-Glu(5-TAMRA)-Val-Ser-Phe-Asn-Phe-Pro-Gln-Ile-Thr-Lys(Compound 12)-Arg ({Arg-Glu(5-TAMRA)}-VSFNFPQITK(Compound 12)R) [FRET peptide #2]
response to HIV-1 protease: excellent response
